B1: GST-fused Sec31A peptide, 13 aa (839–851) (peptide, UniProt O94979 839-851, looked up)
chain: PPPGFIMHGNVNP
notes: also called Sec31A 13 aa, encoding 839–851
B2: GST-fused Sec31A 8-residue peptide P4A (peptide)
chain: NPPAPGFI
notes: Sec31A residues 837-844; numbers count on: the 8-residue peptide (N1 = residue 837 of Sec31A)
B3: GST-fused Sec31A 8-residue peptide P5L (peptide)
chain: NPPPLGFI
notes: as for B2
B4: biotin-labeled ALG-2 (natural protein, human, UniProt O75340 1-191, looked up)
chain: MAAYSYRPGPGAGPGPAAGAALPDQSFLWNVFQRVDKDRSGVISDTELQQALSNGTWTPFNPVTVRSIISMFDRENKAGVNFSEFTGVWKYITDWQNVFRTYDRDNSGMIDKNELKQALSGFGYRLSDQFHDILIRKFDRQGRGQIAFDDFIQGCIVLQRLTDIFRRYDTDQDGWIQVSYEQYLSMVFSIV
modifications: biotin-labeled
notes: ALG-2 (PDCD6), probe of the far-Western blots; also called bio-ALG-2
B5: GST-fused Sec31A peptide, 13 aa (837–849) (peptide, UniProt O94979 837-849, looked up)
chain: NPPPPGFIMHGNV
notes: Sec31A residues 837-849; also called Sec31A 13 aa, encoding 837–849
B6: GST-fused Sec31A 8-residue peptide P2A (peptide)
chain: NAPPPGFI
notes: as for B2
B7: GST-fused Sec31A 8-residue peptide P5A (peptide)
chain: NPPPAGFI
notes: as for B2

Experiments:
Experiment in all cases: far-Western, overlay or dot blot; purified GST-fused peptides resolved by SDS-PAGE, transferred to PVDF membranes and probed with biotin-labeled ALG-2; chemiluminescence, quantified with ImageJ
Conditions in all cases: both partners purified
biotin-labeled ALG-2 = target: B4
[1] = target: T1, GST-8 aa-fusion of PLSCR3 (43–50) (UniProt Q9NRY6 43-50)
T1 construct: PLSCR3 residues 43-50; also called PLSCR3 8 aa, encoding 43–50
T1 chain (looked up): PAPAPGFA

[2] = target: T2, GST-fused Sec31A 8-residue peptide P4S (human, P4S)
T2 construct: Sec31A residues 837-844; numbers count on: the 8-residue peptide (N1 = residue 837 of Sec31A)
T2 chain: NPPSPGFI

| Binder | binding result (biotin-labeled ALG-2) | FW signal relative to that for Sec31A [1] | relative binding activity (percent of WT) [2] |
| --- | --- | --- | --- |
| B1 | binds | – | – |
| B2 | binds | – | – |
| B3 | binds | – | – |
| B4 | – | < 0.0625 of the signal for Sec31A | ~20 % of WT |
| B5 | binds | – | – |
| B6 | binds | – | – |
| B7 | binds | – | – |

Reference: publication PMC4346919, “Structural Analysis of the Complex between Penta-EF-Hand ALG-2 Protein and Sec31A Peptide Reveals a Novel Target Recognition Mechanism of ALG-2” (International Journal of Molecular Sciences, 2015)
